According to patent publication US20230043813A1, “METHODS FOR TARGETED CELL DEPLETION” (The Regents of the University of California, priority 2019, published 2023):

Columns and labels:
[1] = tested on: GFP or RFP expression in E. coli MG1655; assay: E. coli CRISPRi GFP/RFP repression assay; assay type: cell-based
Description: Assays were performed using methods like those described by Oakes et al. (2016).
Endpoint Assay: Cells were picked in biological triplicate into 96 well plates containing 500 μL EZ MOPS plus Carb and CM. Plates were grown in 37° C. shakers for twelve hours. Next, cells were diluted 1:1000 in 500 μL EZ MOPS plus Carb, CM, IPTG and aTc. Two hundred nM aTc was used to induce Cas9-CPs or ProCas9s and 50 μM IPTG levels was used to induce the proteases in a 2 mL deep well blocks and shaken at 750 rpm at 37° C. After an eight-twelve-hour induction and growth period, 20 μL of cells were added to 80 μL of water and put into a 96-well microplate reader (Tecan M1000) at 37° C. and read immediately. Each well was measured for optical density at 600 nm and GFP or RFP fluorescence. GFP expression was normalized by dividing it with OD600. In the case of the time course assays, 150 μL of the 1:1000 dilution was used and placed into a black walled clear bottom plate (3631-Corning) and directly into the Tecan M1000 for a 130× 600 s kinetic cycle of reading. For E. coli single cell analysis, cells from the endpoint time course were run on a Sony SH800 to capture 100,000 events per sample.

WNV protease = molecular target: T1, WNV protease (Kunjin virus, UniProt P14335); assay: immunoblot of ProCas9Flavi activation in HEK293T; assay type: cell-based, human; details: HEK293T co-transfected with WNV protease
T1 construct: expressed in transfected cells; host or cells: HEK293T (293FT)
Description: HEK293T (293FT; Thermo Fisher Scientific) were co-transfected with the indicated plasmids expressing Cas9-wt or ProCas9-Flavi and plasmids expressing dTEV or WNV protease. HEK293T cells were split to reach a confluency of 70%-90% at time of transfection. For transfections in 6-well plates, 1 μg Cas9-sgRNA vector and 0.75 μg protease vector (if applicable) were mixed in 0.4 mL Opti-MEM, followed by addition of 5.25 μg polyethylenimine (PEI; Polysciences #23966). After 20-30 min incubation at room temperature, the transfection reactions were dispersed over the HEK293T cells. Media was changed 12-hour post-transfection. At 36-hour post-transfection, HEK293T were washed in ice-cold PBS and scraped from the plates. Cell pellets were lysed in Laemmli buffer (62.5 mMTris-HCl pH 6.8, 10% glycerol, 2% SDS, 5% 2-mercaptoethanol). Equal amounts of protein were separated on 4%-20% Mini-PROTEAN TGX gels (Bio-Rad, #456-1095) and transferred to 0.2 μm PVDF membranes (Bio-Rad, #162-0177). Blots were blocked in 5% milk in TBST 0.1% (TBS+[…]) for 1 hour; all antibodies were incubated in 5% milk in TBST 0.1% at 4° C. overnight; blots were washed in TBST 0.1%. The abundance of b-actin (ACTB) was monitored to ensure equal loading. […]

[2] = tested on: GFP reporter in HEK-RT1 cells; assay: rapid mammalian genome editing reporter assay (HEK-RT1, GFP disruption); assay type: cell-based, human
Description: To establish a rapid and quantitative way to reliably assess genome editing efficiency from various CRISPR-Cas constructs in mammalian cells, a fluorescence-based reporter assay was built. […] To quantify this effect, HEK293T cells were stably transduced with a retroviral vector (LMP-Pten.1524) constitutively expressing GFP (Fellmann et al., 2013), and established monoclonal derivatives.
Specifically, inducible monoclonal HEK293T-based genome editing reporter cells, referred to as “HEK-RT1,” were established in a two-step procedure. In the first step, puromycin resistant monoclonal HEK-RT3-4 reporter cells were generated (Park et al., 2018). In brief, HEK293T human embryonic kidney cells were transduced at low-copy with the amphotropic pseudotyped RT3GEPIR-Ren.713 retroviral vector (Fellmann et al., 2013), comprising an all-in-one Tet-On system enabling doxycycline-controlled GFP expression. After puromycin (2.0 μg/ml) selection of transduced HEK239 Ts, 36 clones were isolated and individually assessed for i) growth characteristics, ii) homogeneous morphology, iii) sharp fluorescence peaks of doxycycline (1 μg/ml) inducible GFP expression, iv) relatively low fluorescence intensity to favor clones with single-copy reporter integration, and v) high transfectability.
Since HEK-RT3-4 are puromycin resistant, in the second step, monoclonal HEK-RT1 and analogous sister reporter cell lines were derived by transient transfection of HEK-RT3-4 cells with a pair of vectors encoding Cas9 and guide RNAs targeting puromycin (sgPuro5, sgPuro6), followed by identification of monoclonal derivatives that are puromycin sensitive. In total, eight clones were isolated and individually assessed for i) growth characteristics, ii) homogeneous morphology, iii) doxycycline (1 μg/ml) inducible and reversible GFP fluorescence, and v) puromycin and hygromycin B sensitivity. […] The HEK-RT1 cell line was chosen as rapid mammalian genome editing reporter system for all further assays.
A guide RNA targeting the GFP fluorescence reporter (sgGFP9) was compared to a non-targeting control (sgNT). […] GFP expression in HEK-RT1 reporter cells was induced for 24-48 hour using doxycycline (1 μg/ml; Sigma-Aldrich), at the indicated days post-editing.

PCSK9 locus = assay: editing at the endogenous PCSK9 locus (T7E1 assay, TIDE); assay type: cell-based, human; details: guide sgPCSK9-4, WNV protease vs dTEV; A549 and HAP1
Description: Unless otherwise noted, error bars indicate the standard deviation of triplicates, and significance was assessed by comparing samples to their respective controls using unpaired, two-tailed t tests (alpha=0.05). Genome editing quantification using TIDE was carried out as recommended (Brinkman et al., 2014). In brief, indels ranging from −10 to +10 nucleotides were quantified. Parental cells were used as reference for normalization. When reporting TIDE editing efficiencies, only indels with p values <0.01 in at least one replicate were considered true.

T1 sequence (P14335 1506-2124): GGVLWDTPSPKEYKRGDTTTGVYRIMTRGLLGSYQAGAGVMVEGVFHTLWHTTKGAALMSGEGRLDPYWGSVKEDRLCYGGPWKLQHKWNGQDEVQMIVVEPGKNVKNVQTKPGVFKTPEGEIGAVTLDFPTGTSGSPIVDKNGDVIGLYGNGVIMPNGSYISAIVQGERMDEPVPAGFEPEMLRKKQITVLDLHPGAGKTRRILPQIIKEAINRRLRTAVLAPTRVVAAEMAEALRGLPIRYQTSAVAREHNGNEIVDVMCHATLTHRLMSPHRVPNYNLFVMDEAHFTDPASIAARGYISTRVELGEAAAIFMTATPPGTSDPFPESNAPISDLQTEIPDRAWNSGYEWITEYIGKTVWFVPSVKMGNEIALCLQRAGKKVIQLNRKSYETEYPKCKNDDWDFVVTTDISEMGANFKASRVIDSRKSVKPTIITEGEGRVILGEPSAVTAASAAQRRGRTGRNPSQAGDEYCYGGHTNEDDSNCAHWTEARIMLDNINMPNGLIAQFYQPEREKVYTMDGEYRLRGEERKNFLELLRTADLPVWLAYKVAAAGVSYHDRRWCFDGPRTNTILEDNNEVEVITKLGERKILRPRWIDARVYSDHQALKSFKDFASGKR
T1 sequence (P14335 1375-1505): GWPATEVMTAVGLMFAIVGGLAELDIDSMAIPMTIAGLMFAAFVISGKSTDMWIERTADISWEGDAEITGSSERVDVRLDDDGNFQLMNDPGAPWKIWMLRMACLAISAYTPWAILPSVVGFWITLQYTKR

B1: CP199: Cas9 circular permutant, new start site aa 199 (SEQ ID NO:44); linker varies by experiment (protein)
chain: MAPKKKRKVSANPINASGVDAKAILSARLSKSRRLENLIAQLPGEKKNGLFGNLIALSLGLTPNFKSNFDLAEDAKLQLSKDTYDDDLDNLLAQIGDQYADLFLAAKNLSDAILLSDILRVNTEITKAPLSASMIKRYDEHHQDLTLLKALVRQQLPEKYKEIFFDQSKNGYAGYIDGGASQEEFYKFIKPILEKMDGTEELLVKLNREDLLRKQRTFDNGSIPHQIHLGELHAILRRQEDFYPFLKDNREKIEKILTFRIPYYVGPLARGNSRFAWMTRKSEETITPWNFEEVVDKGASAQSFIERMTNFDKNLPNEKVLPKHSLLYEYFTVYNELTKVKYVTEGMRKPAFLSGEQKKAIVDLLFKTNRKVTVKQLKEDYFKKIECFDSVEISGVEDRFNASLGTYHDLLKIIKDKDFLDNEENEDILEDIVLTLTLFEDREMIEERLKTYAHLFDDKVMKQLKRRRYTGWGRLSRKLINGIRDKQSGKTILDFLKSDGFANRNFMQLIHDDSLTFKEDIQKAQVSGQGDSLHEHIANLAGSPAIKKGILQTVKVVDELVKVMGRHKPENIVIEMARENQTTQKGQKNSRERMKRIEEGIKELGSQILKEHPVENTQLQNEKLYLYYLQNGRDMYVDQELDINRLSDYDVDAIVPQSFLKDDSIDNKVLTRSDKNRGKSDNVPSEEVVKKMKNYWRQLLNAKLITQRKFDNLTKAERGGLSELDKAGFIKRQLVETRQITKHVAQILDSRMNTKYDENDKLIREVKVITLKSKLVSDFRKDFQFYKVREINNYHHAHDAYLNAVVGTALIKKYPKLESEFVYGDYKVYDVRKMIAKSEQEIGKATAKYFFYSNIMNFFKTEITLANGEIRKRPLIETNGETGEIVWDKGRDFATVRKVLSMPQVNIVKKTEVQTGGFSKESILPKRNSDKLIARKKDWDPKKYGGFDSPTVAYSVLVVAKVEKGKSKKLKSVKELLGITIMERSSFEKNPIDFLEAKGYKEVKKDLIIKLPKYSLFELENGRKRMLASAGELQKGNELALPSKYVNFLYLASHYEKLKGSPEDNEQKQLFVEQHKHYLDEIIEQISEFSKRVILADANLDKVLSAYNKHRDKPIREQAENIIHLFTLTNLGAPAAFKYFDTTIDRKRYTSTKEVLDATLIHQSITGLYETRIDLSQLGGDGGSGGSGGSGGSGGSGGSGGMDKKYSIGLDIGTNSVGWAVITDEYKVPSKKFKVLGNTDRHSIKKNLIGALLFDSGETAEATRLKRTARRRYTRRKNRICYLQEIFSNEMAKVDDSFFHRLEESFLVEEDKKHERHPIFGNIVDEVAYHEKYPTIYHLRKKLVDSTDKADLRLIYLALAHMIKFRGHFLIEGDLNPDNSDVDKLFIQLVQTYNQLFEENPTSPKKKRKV
- GFP repression activity with TEV protease ([1]; 7-amino acid TEV cleavage site (ENLYFQ/S) as linker, active TEV vs dTEV): switched from completely off to fully on

B2: ProCas9Flavi: ProCas9 with WNV linker sequence KQKKR/GGK, Flavivirus protease-sensitive caged Cas9 (SEQ ID NO:50) (protein)
chain: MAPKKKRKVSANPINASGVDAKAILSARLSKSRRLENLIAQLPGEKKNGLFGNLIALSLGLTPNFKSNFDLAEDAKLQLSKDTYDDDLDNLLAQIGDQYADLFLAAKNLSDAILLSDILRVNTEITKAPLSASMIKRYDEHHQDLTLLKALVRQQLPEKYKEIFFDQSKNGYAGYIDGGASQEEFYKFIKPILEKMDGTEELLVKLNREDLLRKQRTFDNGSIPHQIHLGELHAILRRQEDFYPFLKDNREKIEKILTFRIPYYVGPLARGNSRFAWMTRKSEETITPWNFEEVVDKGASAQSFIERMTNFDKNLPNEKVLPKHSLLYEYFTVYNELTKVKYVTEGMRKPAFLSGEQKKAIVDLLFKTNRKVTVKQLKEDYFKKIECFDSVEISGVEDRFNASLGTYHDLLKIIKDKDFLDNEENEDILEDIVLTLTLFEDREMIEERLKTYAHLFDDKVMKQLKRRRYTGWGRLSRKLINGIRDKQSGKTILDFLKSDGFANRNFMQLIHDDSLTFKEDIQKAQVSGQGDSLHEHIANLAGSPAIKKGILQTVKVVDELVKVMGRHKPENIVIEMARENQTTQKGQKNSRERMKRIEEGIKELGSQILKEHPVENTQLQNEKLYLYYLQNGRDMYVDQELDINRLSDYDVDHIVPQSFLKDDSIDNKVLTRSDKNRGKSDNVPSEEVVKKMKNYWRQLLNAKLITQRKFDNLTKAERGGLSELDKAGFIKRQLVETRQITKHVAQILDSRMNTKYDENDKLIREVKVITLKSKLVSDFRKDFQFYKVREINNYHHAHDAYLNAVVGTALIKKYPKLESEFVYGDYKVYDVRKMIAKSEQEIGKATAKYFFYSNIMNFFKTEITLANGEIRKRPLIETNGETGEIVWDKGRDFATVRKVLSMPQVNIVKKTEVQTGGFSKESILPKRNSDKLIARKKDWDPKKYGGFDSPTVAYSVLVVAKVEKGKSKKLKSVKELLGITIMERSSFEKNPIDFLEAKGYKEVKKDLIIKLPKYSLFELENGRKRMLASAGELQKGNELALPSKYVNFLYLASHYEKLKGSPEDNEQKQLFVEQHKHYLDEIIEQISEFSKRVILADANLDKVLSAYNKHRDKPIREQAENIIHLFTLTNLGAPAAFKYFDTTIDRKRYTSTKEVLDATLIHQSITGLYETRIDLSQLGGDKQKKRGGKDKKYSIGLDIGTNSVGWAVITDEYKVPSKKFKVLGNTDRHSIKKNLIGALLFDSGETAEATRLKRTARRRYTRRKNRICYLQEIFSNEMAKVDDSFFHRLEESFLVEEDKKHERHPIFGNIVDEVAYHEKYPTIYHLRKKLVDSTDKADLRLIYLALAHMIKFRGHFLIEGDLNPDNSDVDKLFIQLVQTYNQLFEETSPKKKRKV
- activation (cleavage into two subunits) by immunoblot (WNV protease): vast majority of vigilant ProCas9Flavi was activated and observed as two distinct subunits
- GFP disruption ([2]; transient transfection, with active or deactivated proteases): GFP disruption only in the presence of the active proteases
- ProCas9 activation by co-expressed viral proteases ([1]; Cas9-CP199 with protease cleavage site as CP linker): activated by NS2B-NS3 proteases from both Zika and WNV

B3: EF1a-ProCas9Flavi: ProCas9Flavi expressed from the strong full-length EF1a promoter, stably integrated lentiviral vector (protein)
chain: B2 chain
- protease-sensitive editing at the PCSK9 locus (T7E1) (PCSK9 locus): clear genome editing in the presence of WNV protease
- genome editing ([2]; stable expression of WNV protease, out to 8 days): about 35%
- genome editing efficiency after transient protease transfection ([2]; stably integrated ProCas9, ZIKV, WNV proteases, mTagBFP2-positive cells): highest genome editing efficiency
- genome editing ([2]; stably transduced WNV protease (FIG. 4F)): over 25%
